Results on two compounds are retold here after patent publication US4732933A, “Neocarzinostatin complexes, a method for producing the same, and an antitumor agent containing said complexes as an active component” (Kayaku Antibiotics Research Co., Ltd., priority 1982, dated 1988).

For series [1], the system named is cancer VX-2 of liver. The series can be described thus: Tumor affinity in cancer VX-2 of liver after intravenous injection. The format is in vivo, rabit. The source says: Tumor affinity in cancer VX-2 of liver of
rabit after intravenous injection of SMANX

In series [2] the test system is normal fibroblasts of rabit. The series is described as follows: Cell toxicity to normal fibroblasts. The series is classed as cell-based. Also on record: key to Cell toxicity to normal fibroblasts: +: Intensity of toxicity; -: No toxicity. Particulars: for Cell toxicity to normal fibroblasts: judgement after 3 days. The source says:
Comparison of cell toxicity
to normal fibroblasts of rabit*
*Judgement after 3 days

Series [3] can be described thus: Solubility of SMANX in various solvents compared with NCS and starting copolymer (Table 1). The series is classed as physicochemical. The settings on record: concentration: 1 mg/ml. How it is done:
|(concentration: 1 mg/ml)

As for neocarzinostatin [NCS], in series [1] (10 mg/kg, 90'), the “Tumor affinity, distant site (normal liver)” value (shortened to “Tumor affinity, distant site”) was 0 and the “Tumor affinity, interior of tumor” value stood at 0. Besides, in series [1] (15'), the “Tumor affinity, distant site” value turned out to be 0 and the “Tumor affinity, interior of tumor” value was 0. In addition, in series [1] (60'), the “Tumor affinity, distant site” value amounted to 0 and the “Tumor affinity, interior of tumor” value was 0. In series [2] (0.1 μg/ml), the “Cell toxicity to normal fibroblasts” value is recorded as “-”. Also, in series [2] (1.0 μg/ml), the “Cell toxicity to normal fibroblasts” value is “+”. In series [2] (footnote to Table 8 (Cf.)), this compound gave an LD50 of 1.0 µg/mL. Besides, in series [3], the “Solubility in 10 mM aqueous solution of sodium bicarbonate” value is listed as “soluble”, the “Solubility in Acetone” value is reported as “insoluble”, the “Solubility in Dioxane” value was “insoluble” and the “Solubility in Lipiodol” value was “insoluble”. In addition, in series [3], the “Solubility in Methanol” value was “insoluble” and the “Solubility in Pyridine” value is listed as “insoluble”. Also, the “Solubility in Water pH 5.0” value in series [3] (pH 5.0) is reported as “soluble”. Further, the “Solubility in Water pH 8.0” value in series [3] (pH 8.0) was “soluble”.

`CO[C@@]12[C@H](COC(N)=O)C3=C(C(=O)C(C)=C(N)C3=O)N1C[C@@H]1N[C@@H]12` [Mitomycin C, reference compound]: the “Cell toxicity to normal fibroblasts” value in series [2] (0.1 μg/ml) was “+”.
